{
  "source": "the nanobody polyreactivity screen of Harvey et al. (2022)",
  "data": [
    {"assay": "yeast display, Sf9 membrane polyspecificity reagent, FACS + sequencing; frameworks hold sequencing errors", "outline": "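After 36–48 hours of galactose induction, yeast (Saccharomyces cerevisiae BJ5465) displaying a synthetic nanobody library were stained at 4 °C for 1 hour with 10% biotinylated, detergent-solubilized Sf9 membrane reagent. Streptavidin microbeads enriched the stained cells before FACS sorting into low and high (top ~1%) gates on anti-HA and streptavidin fluorescence. Each clone's polyreactivity label reflects its gate of origin.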", "values": [
      {"sequence": "QDQHVESGGGLVQAGGSLRLSCDASGRTFTRYAMGWYRQAPGKERELVAAISRGGSTYYADSVKRRFTISRDNAKNTVYLQMNSLKPEDTAVYYCAARYGTYTAGNYWGQGTQVTVSS", "polyreactivity (PSR sort gate)": "high polyreactivity"},
      {"sequence": "QDQHVESGGGLVQAGGSLRLSFADSGITFDYYAMGWYRQAPGKERELVAAISVSGGDTYYADSVKGRFTISRDNAKNTVYLQMNRLKPQDTSVYYCAAEEVSPRWYDYWGQGTQVTVSS", "polyreactivity (PSR sort gate)": "low polyreactivity"},
      {"sequence": "QDQHVESGRGLVQAGGSLRLSCSASGTIFAYVMGWNIQAPRKERQLVAAISRSGGSTYYADSVKGRFTISRDNAKNTVYLQMNSLKPEDTAVFYCAAVGSTVFGTRYYYWGEGTQVTVSS", "polyreactivity (PSR sort gate)": "high polyreactivity"},
      {"sequence": "QDQHVESVGGLVQAGGSLRFSCAASGSTFTRYAMGWYRQAPGKERELVAAIDGGGGSTSYADSVKGRFTISRDNAKNTVYLQMNSLKPEDTAVYYCAAPLDTSSSIFDYWGQGTQVTVSS", "polyreactivity (PSR sort gate)": "low polyreactivity"},
      {"sequence": "QDQIVESGGGLVQAGGSLRLSCASSGFTFYVYAMGWYRQAPCKERELVAAISWSGGRTYYAESVKGRFTISRDNAKNTVYLQMNSLKPEDTAVYYCAAYRYYPSYDYWGQGTQVTVSS", "polyreactivity (PSR sort gate)": "high polyreactivity"},
      {"sequence": "QDQIVYSGGGLVQAGGSLRLSCAASVRTFYRYDLGWYIQAPGKESELVAAISYSGASTYYADSVKGRFTISRDIAKNTVYLQMNSLKPEDTAVYYCAARYHGRDPRQIRYGYWGQGTQVTVSS", "polyreactivity (PSR sort gate)": "high polyreactivity"},
      {"sequence": "QDQLEESGGGIVQAGGSLRLSCAASGSTFQYYAMGWYRQAPGKERELFAAISASVDTKFYADSVKGRFTISRDNAKNTVYLQMNSLKPEDTAFYYCATDWPHWRKVYWFDYWGQGTQVTVSS", "polyreactivity (PSR sort gate)": "low polyreactivity"},
      {"sequence": "QDQLEESGGGLVQAGASLRLSCAAYGSIFSGYAMGRYRQATGKERELVAAITWRAASTYYADSVKGRFTISRDNAKTTVYLQMNSLKPEDTEVYYCAKEGWPKPAFYYWGLGTQVTVSS", "polyreactivity (PSR sort gate)": "low polyreactivity"},
      {"sequence": "QDQLEESGGGLVQEGGSLRLSCAASGFIFPRYAMGWYRQAPGKERELVAAISRSGGITRYADSVKGRFSISRDNAKNTVYLQMISLKPEDTAVYYCAAARSYWAKYYYWGQGTQVTVSS", "polyreactivity (PSR sort gate)": "high polyreactivity"},
      {"sequence": "QDQLGDSGGGLVQAGGSLRLSCAASGLTFYRYAMGWYRQAPGKERELVAAIRWNSGSTYYADSVKGRFTISRVNAKNTVYLQMNSLKPEDTAVYYCAATAIYPSAWRMAYWGQGTQVTVSS", "polyreactivity (PSR sort gate)": "high polyreactivity"},
      {"sequence": "QDQLGESGGGLVQAGGSLRLICAASGRIFVSNTMGCYRQAPGKERELVATISRRGGITYYADSVKGRFTISRDNAKNTVYLQMNSLKPEDTAVYYCAAESYSFWLYDYCGQGTQVTVSS", "polyreactivity (PSR sort gate)": "high polyreactivity"},
      {"sequence": "QDQLGESGGGLVQAGGSLRLSCAASGSIFETYVMGWYRQAPGKERELVAAINSGGSTNYADSVKGRFTISRDNAKNTVYLQMNSLKAEDTAVYYCNADWFTPAQPWYRYFIRYDYWGQGTQVTVSS", "polyreactivity (PSR sort gate)": "low polyreactivity"},
      {"sequence": "QDQLLESGAGLVQAGGSLRLSCAASGRIFDYNVMGWYRQAPGKERELVADITSSGGSTYYADSVKGRFTISRDNAKNTVYLQMNSLKPEDTAVYYCYISYFTIYDDFYYWGQGTQVTVSS", "polyreactivity (PSR sort gate)": "low polyreactivity"},
      {"sequence": "QDQLLESGGGLVQAGGSLRLSCAASGSILQDYAMGWYRQAPGKERELVAAISNSGDSTYYADSLKGRFTISRENAKTTVYLQLNSLKPEDTAVYYCNAAVYPYAMYSGGLDYDYWGHGTQVTVSS", "polyreactivity (PSR sort gate)": "low polyreactivity"},
      {"sequence": "QDQLVDSCGGLVQARGSLRLSCAASGSIFGDYAMGWYRQAPGKEWELVAAISDTDSTNDADSVKGRFTISRDNAKNTVYLQMNSLKREDTAVYSCNGDTWGYLLGYYYYKFAYCGQGTQVTVSS", "polyreactivity (PSR sort gate)": "low polyreactivity"},
      {"sequence": "QDQLVDSGGGLLQAGGSLRLSCAASGRIFVWNTMGWYRQAPGKERELVAAITSGGSTTFADSVKGRFTISRDNAKYTVYLQMNSLKPEDTAVYYCNTELDLYHPGDDYWGQGTQVTVSS", "polyreactivity (PSR sort gate)": "high polyreactivity"},
      {"sequence": "QDQLVDSGGGLVQAGGSLRLSCAASASTFDPNLMPSYRQAPGKEREVVAAISSRSGSTSYADSVKGRFTISRDNAKNTDYLQMNSLKPEDTAVYYCAARVYGLPLRMYSWGQGTQVTGSS", "polyreactivity (PSR sort gate)": "high polyreactivity"}
    ]}
  ]
}
